{
  "source": "paper PMC12042621",
  "about": "(Structure (London, England : 1993), 2025)",
  "binders": {"B1": {"name": "S1–8 (VHH)", "VHH": "QVQLVESGGGLVQAGGSLRLSCAASGRVLSSYVMGWFRQAPGKEREFVAAIRWNGGSTFYADSVKGRLTISRDNAKNTVYLQMNSLKPEDTAAYYCAASPRTMYDATYYYSRTSYDYWGQGTQVTVS"}, "B2": {"name": "LaG41 (VHH)", "VHH": "DVQLVESGGGLVQAGGSLRLSCAASGPTGAMAWFRQAPGKEREFVGGISGSETDTYYVDSVKGRFTVDRDNVKNTVYLQMNSLKPEDTAVYYCAARRRITLFTSRTDYDFWGRGTQVTVGL"}, "B3": {"name": "LaG21_(L69F) (VHH)", "VHH": "B2 VHH with D1Q, K40M, V58A, S60F, Y77D, I99V, T106A, R113Q, G120S, L121G"}, "B4": {"name": "LaG21 (VHH)", "VHH": "QVQLVESGGGLVQAGGSLRLSCAASGPTGAMAWFRQAPGMEREFVGGISGSETDTYYADFVKGRLTVDRDNVKNTVDLQMNSLKPEDTAVYYCAARRRVTLFTSRADYDFWGQGTQVTVSG"}, "B5": {"name": "LaG16 (VHH)", "VHH": "QVQLVESGGRLVQAGDSLRLSCAASGRTFSTSAMAWFRQAPGREREFVAAITWTVGNTILGDSVKGRFTISRDRAKNTVDLQMDNLEPEDTAVYYCSARSRGYVLSVLRSVDSYDYWGQGTQVTVSG"}, "B6": {"name": "LaG24_(Q68K) (VHH)", "VHH": "DVQLVESGGGLVQPGGSLRLSCAASGEIASIIAIGWYRQAPGKQRESVALITRSGMITYGDSAKGRFTISRDDAKNTVYLHMDDLVPEDTAVYYCNAKKVSFGDYWGQGTQVTVSG"}, "B7": {"name": "LaG24_(H85Q) (VHH)", "VHH": "B6 VHH with K64Q, H81Q"}, "B8": {"name": "LaG43 (VHH)", "VHH": "DVQLVESGGGLVQPGGSLRLSCEASGGAFSTVAMGWFRQAPGKEREFVGAITWTAGSTYYADSAKGRFTISRDNAKNTVHLQMNSLKPEDTAVYYCAQRVRGFFGPLRTTPSWYEYWGQGTQVTVSG"}, "B9": {"name": "LaG19_(S102R) (VHH)", "VHH": "QVQLVESGGGLVQAGGSLRLSCAASGPTGAMAWFRQAPGKEREFVGGISRSGTDTYYVDSVKGRFTIDRDNAKNTVYLQMNSLKPEDTAVYYCAARRRQILFTSRTDYEFWGQGTQVTVSG"}},
  "note": "Positions count from the first letter of the chain named. Numbers in names are those of the source.",
  "data": [
    {"target": "SARS-CoV-2 spike S1 (SARS-CoV-2, wild type (Wuhan-Hu-1), UniProt P0DTC2)", "experiment": "SPR", "units": {"Kd": "nM"}, "values": [
      {"binder": "B1", "Kd": 3.8}
    ]},
    {"target": "Green Fluorescent Protein (Aequorea victoria, laboratory variant …)", "experiment": "SPR", "units": {"Kd": "nM", "fold increase in affinity over wildtype LaG24": "fold"}, "values": [
      {"binder": "B2", "Kd": 0.9},
      {"binder": "B3", "Kd": 0.7},
      {"binder": "B4", "Kd": 7},
      {"binder": "B5", "Kd": 0.7},
      {"binder": "B6", "fold increase in affinity over wildtype LaG24": "~10"},
      {"binder": "B7", "fold increase in affinity over wildtype LaG24": "> 10"},
      {"binder": "B8", "Kd": 11},
      {"binder": "B9", "Kd": 0.6}
    ]}
  ]
}
